Data on 5 substances can be found in US20180140737A1, “HAEMOSTATIC MATERIAL” (HAEMOSTATIX LIMITED, priority 2015, published 2018).

The target in test [1] is T1, fibrinogen (Homo sapiens, UniProt P02675+P02679).
T1 sequence (P02679 27-453): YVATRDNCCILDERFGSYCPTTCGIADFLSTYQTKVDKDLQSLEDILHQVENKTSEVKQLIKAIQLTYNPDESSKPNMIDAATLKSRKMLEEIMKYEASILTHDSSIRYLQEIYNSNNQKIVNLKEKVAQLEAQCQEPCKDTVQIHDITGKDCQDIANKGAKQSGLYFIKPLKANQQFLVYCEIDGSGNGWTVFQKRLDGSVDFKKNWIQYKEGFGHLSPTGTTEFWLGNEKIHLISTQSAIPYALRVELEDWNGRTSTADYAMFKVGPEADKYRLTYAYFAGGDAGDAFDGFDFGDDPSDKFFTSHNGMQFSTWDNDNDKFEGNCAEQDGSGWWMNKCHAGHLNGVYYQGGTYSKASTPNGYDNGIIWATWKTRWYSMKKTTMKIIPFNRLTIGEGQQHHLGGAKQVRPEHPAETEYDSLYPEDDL
T1 sequence (P02675 31-491): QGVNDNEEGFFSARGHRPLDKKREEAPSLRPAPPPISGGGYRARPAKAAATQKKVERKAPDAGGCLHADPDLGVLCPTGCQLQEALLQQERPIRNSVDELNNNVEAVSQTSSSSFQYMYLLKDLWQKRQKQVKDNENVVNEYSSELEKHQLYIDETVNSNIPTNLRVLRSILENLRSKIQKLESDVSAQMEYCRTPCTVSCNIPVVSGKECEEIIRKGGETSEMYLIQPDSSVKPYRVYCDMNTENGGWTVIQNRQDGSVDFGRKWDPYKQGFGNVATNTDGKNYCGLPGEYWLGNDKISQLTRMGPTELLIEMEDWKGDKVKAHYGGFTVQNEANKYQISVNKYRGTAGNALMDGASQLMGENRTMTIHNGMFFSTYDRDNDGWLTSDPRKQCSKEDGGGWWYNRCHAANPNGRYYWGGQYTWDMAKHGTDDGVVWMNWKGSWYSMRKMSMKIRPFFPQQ
T1 sequence (P02671 20-629 partner limits assumed): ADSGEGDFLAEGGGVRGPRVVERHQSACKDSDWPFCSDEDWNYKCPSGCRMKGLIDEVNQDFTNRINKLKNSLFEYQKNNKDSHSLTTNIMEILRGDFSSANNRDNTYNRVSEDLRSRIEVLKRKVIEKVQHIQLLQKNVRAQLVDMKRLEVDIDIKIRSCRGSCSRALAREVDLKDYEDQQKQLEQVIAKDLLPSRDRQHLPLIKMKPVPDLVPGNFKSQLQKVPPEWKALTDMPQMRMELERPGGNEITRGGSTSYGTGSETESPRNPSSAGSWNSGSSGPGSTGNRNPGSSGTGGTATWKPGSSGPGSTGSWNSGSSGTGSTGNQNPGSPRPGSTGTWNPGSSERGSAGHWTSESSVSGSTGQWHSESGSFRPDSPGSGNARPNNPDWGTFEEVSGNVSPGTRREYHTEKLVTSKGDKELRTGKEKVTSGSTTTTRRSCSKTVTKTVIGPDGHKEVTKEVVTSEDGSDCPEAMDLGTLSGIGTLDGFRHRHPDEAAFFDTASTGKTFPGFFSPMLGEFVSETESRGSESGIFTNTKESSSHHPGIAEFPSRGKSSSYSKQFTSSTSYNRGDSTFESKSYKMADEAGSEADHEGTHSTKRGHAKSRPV
Description: Clotting activity of dendrimer extracted from gamma-irradiated gelatin paste. The format is biochemical. Conditions: paste with SURGIFLO, extract about 0.25 mg/ml, fibrinogen 3 mg/ml, 37° C. How it is done: 2 ml of solution of Peptide Dendrimer No. 12 or 13 was mixed with SURGIFLO Haemostatic Matrix (a hydrated flowable gelatin matrix) to form a paste of each peptide. Each paste was sterilised by irradiation with ^60Co gamma rays at a dose of 30 kGy, and then stored at room temperature. Samples of the sterilised pastes were used for testing after storage for two and four weeks.
After storage, peptide dendrimers were extracted from each paste using 10 mM HEPES buffer. 30 μL of each extract (with a peptide concentration of about 0.25 mg/ml) was added to 100 μL of human fibrinogen at 3 mg/ml, and the ability of each dendrimer to polymerise fibrinogen (the ‘clotting’ activity) at 37° C. was determined using a Sigma Amelung KC4 Delta coagulation analyser. The polymerisation activity of non-irradiated control samples was also determined.

The target in test [2] is T2, purified human fibrinogen (Homo sapiens, UniProt P02675+P02679).
T2 sequence (P02679 27-453): T1 sequence (P02679 27-453)
T2 sequence (P02675 31-491): T1 sequence (P02675 31-491)
T2 sequence (P02671 20-629 partner limits assumed): T1 sequence (P02671 20-629 partner limits assumed)
Description: Co-polymerisation with purified human fibrinogen, clotting time (Sigma Amelung KC4 Delta coagulation analyser). The format is biochemical. How it is done: The ability of Peptide Dendrimer No. 12 to polymerise fibrinogen was assessed. 30 μl of dendrimer in solution, at concentration ranging from 0.005-2 mg/ml, was added to 100 μl purified human fibrinogen at 3 mg/ml (the level of fibrinogen found in the blood). Polymerisation of fibrinogen was analysed using a Sigma Amelung KC4 Delta coagulation analyser.
The ability of Peptide Dendrimer Nos. 4, 5, 10, 11, and 12 to copolymerise with fibrinogen was assessed using the same method described in Example 11. The concentration of each dendrimer was varied from 0.005-0.5 mg/ml.
The ability of the dendrimers to copolymerise with fibrinogen was assessed using the same method described in Example 11, for a concentration of each dendrimer ranging from 0.005-0.5mg/ml.
The ability of the dendrimers to copolymerise with fibrinogen was assessed using the same method described in Example 11, for a concentration of each dendrimer ranging from 0.005-0.5 mg/ml.
Peptide Conjugate No. 1 or 2 (2 mg/ml) was mixed with Peptide Dendrimer No. 3 or 4, and fibrinogen, and the ability of the mixtures to copolymerise with fibrinogen was assessed using the same method described in Example 11, for a concentration of each dendrimer ranging from 0.025-0.5 mg/ml.

Test [3] deals with T3, fibrinogen in human plasma (Homo sapiens, UniProt P02675+P02679).
T3 construct: from tissue; host or cells: human plasma
T3 sequence (P02679 27-453): T1 sequence (P02679 27-453)
T3 sequence (P02675 31-491): T1 sequence (P02675 31-491)
T3 sequence (P02671 20-629 partner limits assumed): T1 sequence (P02671 20-629 partner limits assumed)
Description: Polymerisation of fibrinogen in human plasma (KC4 Delta coagulation analyzer). Conditions: 30 μL dendrimer 0.25 mg/ml added to 100 μL human plasma, 37° C. The format is biochemical. On the procedure:
The ability of several different peptide dendrimers (Nos. 4, 5, 8, 9, 10, 11, 12, 13) to polymerise fibrinogen in human plasma was tested.
30 μL of each dendrimer (at a concentration of 0.25 mg/ml) was added to 100 μL human plasma at 37° C., and polymerisation of fibrinogen was determined using a Sigma Amelung KC4 Delta coagulation analyzer.

Test [4] deals with T1, fibrinogen. Conditions: cited from earlier work.

Turning to “Peptide Dendrimer No. 12 (peptide GPRPG; chain KKKKK)”, the “Clotting activity (seconds), Storage for 2 weeks post irradiation” value with fibrinogen [1] (30 kGy gamma, 2 weeks room temperature) was found to be 1 s. The “Clotting activity (seconds), Storage for 4 weeks post irradiation” value in the test with fibrinogen [1] (30 kGy gamma, 4 weeks room temperature) stood at 1 s. The “Clotting activity (seconds), Non-irradiated control” value with fibrinogen [1] (not irradiated) was found to be 1 s. The “ability to copolymerise with fibrinogen” value in test [2] (dendrimer 0.005-2 mg/ml, fibrinogen 3 mg/ml) was “able to copolymerise with fibrinogen almost instantaneously”. Also, in test [2] (dendrimer in the range ~0.02-0.5 mg/ml), the clotting entry is on record as “almost instantaneous clotting”. Further, in test [3], the “ability to polymerise fibrinogen in human plasma” value is given as “able to polymerise fibrinogen in human plasma” and the clotting time result was “less than one second”.

With GHRPY, the “binding preference for hole 'a' / hole 'b' of fibrinogen” value on fibrinogen [4] is “binds strongly and preferentially to the ‘b’ hole of fibrinogen”.

Regarding GPRP, at fibrinogen [4], the “binding preference for hole 'a' / hole 'b' of fibrinogen” value was “binds strongly and preferentially to the ‘a’ hole of fibrinogen”.

Regarding GPRPG, the “binding preference for hole 'a' / hole 'b' of fibrinogen” value on fibrinogen [4] is “binds to hole ‘a’ and hole ‘b’ of fibrinogen, but with some preference for hole ‘a’”.

GPRPFPA: in the test with fibrinogen [4], the “binding preference for hole 'a' / hole 'b' of fibrinogen” value is given as “binds with high preference for hole ‘a’ in fibrinogen”.
